The test deals with T1, integrin αIIbβ3 of human platelets (human, UniProt P08514 32-1039).
T1 construct: whole, on cells; Endogenous receptor; also called integrin β3; glycoprotein IIb-IIIa
The experiment in a line: co-IP from platelet lysates and GST pull-downs.

B1: Gα13 (G protein α subunit), endogenous protein of human platelets (other)
chain: MADFLPSRSVLSVCFPGCLLTSGEAEQQRKSKEIDKCLSREKTYVKRLVKILLLGAGESGKSTFLKQMRIIHGQDFDQRAREEFRPTIYSNVIKGMRVLVDAREKLHIPWGDNSNQQHGDKMMSFDTRAPMAAQGMVETRVFLQYLPAIRALWADSGIQNAYDRRREFQLGESVKYFLDNLDKLGEPDYIPSQQDILLARRPTKGIHEYDFEIKNVPFKMVDVGGQRSERKRWFECFDSVTSILFLVSSSEFDQVLMEDRLTNRLTESLNIFETIVNNRVFSNVSIILFLNKTDLLEEKVQIVSIKDYFLEFEGDPHCLRDVQKFLVECFRNKRRDQQQKPLYHHFTTAINTENIRLVFRDVKDTILHDNLKQLMLQ
notes: Endogenous Gα13 in detergent lysates of washed human platelets, precipitated or detected with anti-Gα13 antibody; also called G protein subunit Gα13
With B1, the binding result is given as “binds”.

(Values after patent US20160257711A1 (BOARD OF TRUSTEES OF THE UNIVERSITY OF ILLINOIS, published 2016).)
